In article PMC7495468 one finds stoichiometry N data, which are given here for one substance.

The target in the assay is HKU1-A HE ectodomain (human coronavirus HKU1 haemagglutinin-esterase, type A) (human coronavirus HKU1 (type A)). Description: […] (4 mg/ml; SEC buffer 10 mM Tris-HCl pH 8, 50 mM NaCl), […].

As a reminder, the stoichiometry N is a count of units in the complex or per binding partner. On to “HKU1-A HE ectodomain (human coronavirus HKU1 haemagglutinin-esterase, type A) (domain or fragment)”, for which the stoichiometry N came out at 2.
